Experimental data published in patent US20240100159A1, “USE OF IL-7R-ALPHA-GAMMA AGONIST PEPTIDES IN CELL MANUFACTURING” (MEDIKINE, INC., priority 2022, published 2024).

Assays:
IL-7Rα subunit = molecular target: T1, IL-7Rα subunit (Homo sapiens, UniProt P16871); assay: Competitive binding assays, unique binding site on the IL-7Rα subunit; details: against IL-7Rα ligands SEQ ID NO: 455-459
T1 sequence (P16871 21-459): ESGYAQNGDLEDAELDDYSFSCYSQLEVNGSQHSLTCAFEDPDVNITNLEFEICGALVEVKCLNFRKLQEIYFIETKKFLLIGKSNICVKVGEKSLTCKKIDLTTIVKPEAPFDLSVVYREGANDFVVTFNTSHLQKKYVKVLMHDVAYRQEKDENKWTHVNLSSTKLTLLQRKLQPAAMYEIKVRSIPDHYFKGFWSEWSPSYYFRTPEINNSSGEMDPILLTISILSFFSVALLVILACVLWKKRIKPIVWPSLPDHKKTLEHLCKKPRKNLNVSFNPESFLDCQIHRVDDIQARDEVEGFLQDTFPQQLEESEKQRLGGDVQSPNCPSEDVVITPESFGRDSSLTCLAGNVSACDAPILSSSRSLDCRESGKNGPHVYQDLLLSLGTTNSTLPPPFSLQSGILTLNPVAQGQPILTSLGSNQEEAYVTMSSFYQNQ
From the text: The unique binding site of the IL-7Rα subunit for these IL-7Rα ligands can be characterized using competitive binding assays as described, for example, in Example 12.

IL-7Rγc subunit = molecular target: T2, IL-7Rγc subunit (Homo sapiens, UniProt P31785); assay: Competitive binding assays, specific binding site on the IL-7Rγc subunit; details: against Rγc ligands SEQ ID NO: 461-465
T2 sequence (P31785 23-369): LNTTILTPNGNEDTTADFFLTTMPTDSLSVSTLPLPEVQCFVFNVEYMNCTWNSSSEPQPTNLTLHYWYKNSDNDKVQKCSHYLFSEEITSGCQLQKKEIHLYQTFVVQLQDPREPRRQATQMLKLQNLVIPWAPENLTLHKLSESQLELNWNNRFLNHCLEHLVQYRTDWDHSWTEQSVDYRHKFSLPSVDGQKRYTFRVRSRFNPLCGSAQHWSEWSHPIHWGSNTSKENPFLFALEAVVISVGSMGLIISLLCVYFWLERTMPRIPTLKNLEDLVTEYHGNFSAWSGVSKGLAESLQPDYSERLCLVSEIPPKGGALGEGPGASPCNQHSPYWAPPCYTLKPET
From the text: The specific binding site of the IL-7Rγc subunit for these Rγc ligands can be characterized using competitive binding assays.

Row | competition for binding to the unique binding site on the IL-7Rα subunit with the group of IL-7Rα ligands (IL-7Rα subunit) | competition for binding to the specific binding site on the IL-7Rγc subunit with the group of Rγc ligands (IL-7Rγc subunit) | Substance
1 | does not compete | – | V V C Q D W E G V E L C W Q (VVCQDWEGVELCWQ) [SEQ ID NO: 261]
2 | – | does not compete | SEQ ID NO: 460: An IL-7Rα ligand having the amino acid sequence of SEQ ID NO: 460; sequence not printed in the text (YDCRIAQVGELCDL)
